Measurements published in patent US20170088600A1 (published 2017).

T1: mouse TRAIL expressed on transiently transfected 293T cells (mouse, UniProt P50592 1-291)
T1 construct: whole, on cells; also called mTRAIL; mouse (m) TRAIL
T1 sequence (looked up): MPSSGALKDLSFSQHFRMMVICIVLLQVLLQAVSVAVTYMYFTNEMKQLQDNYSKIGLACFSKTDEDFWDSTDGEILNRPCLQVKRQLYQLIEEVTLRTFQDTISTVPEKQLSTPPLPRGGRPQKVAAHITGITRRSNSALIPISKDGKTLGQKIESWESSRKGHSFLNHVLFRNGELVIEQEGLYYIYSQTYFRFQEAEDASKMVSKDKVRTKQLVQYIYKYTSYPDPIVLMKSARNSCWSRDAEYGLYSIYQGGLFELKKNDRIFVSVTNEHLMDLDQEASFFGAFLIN


biological target: T2, TRAIL (TNFSF10) ectodomain (UniProt P50591 39-281, limits assumed); assay: SPR, mutant TRAIL-R2-Fc captured, TRAIL as analyte
T2 construct: extracellular domain; also called endogenous TRAIL; TRAIL ectodomain
T2 sequence (P50591 39-281 limits assumed): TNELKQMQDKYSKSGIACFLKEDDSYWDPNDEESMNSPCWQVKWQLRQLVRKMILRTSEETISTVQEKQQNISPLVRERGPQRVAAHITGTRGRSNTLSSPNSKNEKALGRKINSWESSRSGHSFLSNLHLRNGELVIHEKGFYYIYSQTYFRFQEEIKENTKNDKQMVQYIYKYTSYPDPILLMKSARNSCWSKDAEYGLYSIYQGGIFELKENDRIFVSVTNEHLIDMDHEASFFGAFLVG

Row | Binder | Kd [nM] | koff [s⁻¹] | kon [M⁻¹ s⁻¹] | binding result
1 | TRAIL-R2-Fc K155A (Fc fusion, human, not shown: a dimerising Fc or GST, range 58-184) QQDLAPQQRAAPQQKRSSPSEGLCPPGHHISEDGRDCISCKYGQDYSTHWNDLLFCLRCTRCDSGEVELSPCTTTRNTVCQCEEGTFREEDSPEMCRACRTGCPRGMVKVGDCTPWSDIECVHKESGLVPRGS | 39.7 | 0.000138 | 3480 | 
2 | TRAIL-R2-Fc D148A (Fc fusion, human, not shown: a dimerising Fc or GST, range 58-184) QQDLAPQQRAAPQQKRSSPSEGLCPPGHHISEDGRDCISCKYGQDYSTHWNDLLFCLRCTRCDSGEVELSPCTTTRNTVCQCEEGTFREEASPEMCRKCRTGCPRGMVKVGDCTPWSDIECVHKESGLVPRGS | 4.48 | 3.58e-05 | 8000 | 
3 | TRAIL-R2-Fc Y103A/N134A (Fc fusion, human, not shown: a dimerising Fc or GST, range 58-184; also called Y103/N134) QQDLAPQQRAAPQQKRSSPSEGLCPPGHHISEDGRDCISCKYGQDASTHWNDLLFCLRCTRCDSGEVELSPCTTTRATVCQCEEGTFREEDSPEMCRKCRTGCPRGMVKVGDCTPWSDIECVHKESGLVPRGS |  |  |  | no binding
4 | TRAIL-R2-Fc E151A (Fc fusion, human, not shown: a dimerising Fc or GST, range 58-184) QQDLAPQQRAAPQQKRSSPSEGLCPPGHHISEDGRDCISCKYGQDYSTHWNDLLFCLRCTRCDSGEVELSPCTTTRNTVCQCEEGTFREEDSPAMCRKCRTGCPRGMVKVGDCTPWSDIECVHKESGLVPRGS |  |  |  | no binding (tested: up to 1 µM ligand)
5 | TRAIL-R2-Fc P150A (Fc fusion, human, not shown: a dimerising Fc or GST, range 58-184) QQDLAPQQRAAPQQKRSSPSEGLCPPGHHISEDGRDCISCKYGQDYSTHWNDLLFCLRCTRCDSGEVELSPCTTTRNTVCQCEEGTFREEDSAEMCRKCRTGCPRGMVKVGDCTPWSDIECVHKESGLVPRGS | 4.29 | 9.02e-06 | 2100 | 
6 | TRAIL-R2-Fc V167A (Fc fusion, human, not shown: a dimerising Fc or GST, range 58-184) QQDLAPQQRAAPQQKRSSPSEGLCPPGHHISEDGRDCISCKYGQDYSTHWNDLLFCLRCTRCDSGEVELSPCTTTRNTVCQCEEGTFREEDSPEMCRKCRTGCPRGMVKAGDCTPWSDIECVHKESGLVPRGS | 4.35 | 9.57e-06 | 2200 | 
7 | TRAIL-R2-Fc F112A (Fc fusion, human, not shown: a dimerising Fc or GST, range 58-184) QQDLAPQQRAAPQQKRSSPSEGLCPPGHHISEDGRDCISCKYGQDYSTHWNDLLACLRCTRCDSGEVELSPCTTTRNTVCQCEEGTFREEDSPEMCRKCRTGCPRGMVKVGDCTPWSDIECVHKESGLVPRGS | 3.94 | 9.86e-06 | 2500 | 
8 | TRAIL-R2-Fc Y103A/R133A (Fc fusion, human, not shown: a dimerising Fc or GST, range 58-184; also called Y103/R133) QQDLAPQQRAAPQQKRSSPSEGLCPPGHHISEDGRDCISCKYGQDASTHWNDLLFCLRCTRCDSGEVELSPCTTTANTVCQCEEGTFREEDSPEMCRKCRTGCPRGMVKVGDCTPWSDIECVHKESGLVPRGS |  |  |  | no binding
9 | TRAIL-R2-Fc M152A (Fc fusion, human, not shown: a dimerising Fc or GST, range 58-184) QQDLAPQQRAAPQQKRSSPSEGLCPPGHHISEDGRDCISCKYGQDYSTHWNDLLFCLRCTRCDSGEVELSPCTTTRNTVCQCEEGTFREEDSPEACRKCRTGCPRGMVKVGDCTPWSDIECVHKESGLVPRGS | 202 | 0.000678 | 3350 | 
10 | TRAIL-R2-Fc M152A/R154A/K155A (Fc fusion, human, not shown: a dimerising Fc or GST, range 58-184; also called M152/R154/K155) QQDLAPQQRAAPQQKRSSPSEGLCPPGHHISEDGRDCISCKYGQDYSTHWNDLLFCLRCTRCDSGEVELSPCTTTRNTVCQCEEGTFREEDSPEACAACRTGCPRGMVKVGDCTPWSDIECVHKESGLVPRGS |  |  |  | no binding
11 | TRAIL-R2-Fc L110A/L114A (Fc fusion, human, not shown: a dimerising Fc or GST, range 58-184; also called L110/L114) QQDLAPQQRAAPQQKRSSPSEGLCPPGHHISEDGRDCISCKYGQDYSTHWNDALFCARCTRCDSGEVELSPCTTTRNTVCQCEEGTFREEDSPEMCRKCRTGCPRGMVKVGDCTPWSDIECVHKESGLVPRGS |  |  |  | no binding

biological target: T1, mouse TRAIL expressed on transiently …; assay: flow cytometry on 293T cells transfected with mouse TRAIL

Row | Binder | binding result
12 | mouse TRAIL-R2:Fc (extracellular domain of mouse TRAIL-R2 fused to human IgG constant domain) (Fc fusion, UniProt Q9QZM4 53-180, looked up, extracellular domain; also called mTRAIL-R2:Fc; not shown: printed only as the human IgG VH constant domain; subclass, limits and linker no) NPAHNRPAGLQRPEESPSRGPCLAGQYLSEGNCKPCREGIDYTSHSNHSLDSCILCTVCKEDKVVETRCNITTNTVCRCKPGTFEDKDSPEICQSCSNCTDGEEELTSCTPRENRKCVSKTAWASWHK | binds
